Experimental data taken from patent US20180050058.

What was measured:
Experiment in all cases: pulldown
[1] = system: Hemagglutinins of 14 non-H5 subtypes (H1-H4, H6-H13, H15, H16; Table 1 strains) (Influenza A virus)
[2] = system: Hemagglutinin H5N1 A/duck/Hunan/795/2002 (HN-8) (Influenza A virus H5N1 (A/duck/Hunan/795/2002))
[3] = system: Hemagglutinin H5N1 A/Egypt/2321-NAMRU3/2007 (EG-2) (Influenza A virus H5N1 (A/Egypt/2321-NAMRU3/2007))
[4] = system: Hemagglutinin H5N1 A/Indonesia/5/2005 (IN-3) (Influenza A virus H5N1 (A/Indonesia/5/2005))
[5] = system: Hemagglutinin H5N8 A/duck/NY191255-59/2002 (D-14) (Influenza A virus H5N8 (A/duck/NY191255-59/2002))
[6] = system: Hemagglutinin H5N3 A/duck/Hokkaido/167/2007 (HK-12) (Influenza A virus H5N3 (A/duck/Hokkaido/167/2007))
[7] = system: Hemagglutinin H5N2 A/American green-winged teal/California/HKWF609/2007 (A-17) (Influenza A virus H5N2 (A/American green-winged teal/California/HKWF609/2007))
[8] = system: Hemagglutinin H5N1 A/Vietnam/1994/2004 (V-16) (Influenza A virus H5N1 (A/Vietnam/1994/2004))
[9] = system: Hemagglutinin H5N1 A/Hong Kong/483/97 (H-12) (Influenza A virus H5N1 (A/Hong King/483/97))
[10] = system: Hemagglutinin H5N1 A/bar-headed goose/Qinghai/14/2008 (Hg-2) (Influenza A virus H5N1 (A/bar-headed goose/Qinghai/14/2008))
[11] = system: Hemagglutinin H5N1 A/Cambodia/R0405050/2007 (C-8) (Influenza A virus H5N1 (A/Cambodia/R0405050/2007))
[12] = system: Hemagglutinin H5N1 A/Japanese white-eye/Hong Kong/1038/2006 (JW-1) (Influenza A virus H5N1 (A/Japanese white-eye/Hong Kong/1038/2006))
[13] = system: Hemagglutinin H5N1 A/goose/Guiyang/337/2006 (G-8) (Influenza A virus H5N1 (A/goose/Guiyang/337/2006))
[14] = system: Hemagglutinin H5N1 A/Hubei/2010 (HB-16) (Influenza A virus H5N1 (A/Hubei/2010))

Sequence	binding signal [1]	other results
CTTCTTCCACCCATGCCGGCTGGAGAATCC [A5]	< 20%	Kd [2]: 12.4 nM
TGGGTTTGGAAATTGGGACACAGTGGGGCG [A7]	< 20%	Kd [3]: 1.96 nM
TGGATTCACGCGGTCTCCGCCCTTGGGTGG [A6]	< 20%	Kd [4]: 14 nM
TACTTATGTGGGCCGGTGCGTTTGCATTTT [A13]	< 20%	Kd [5]: 0.7 nM
TGCACGCAGGGGCCGCTTGGGTGGAGAGGC [A12]	< 20%	Kd [6]: 3.5 nM
GCGAGGTTGAGCGTGGGCTACTTGGTTCAT [A11]	< 20%	Kd [7]: 3.5 nM
TGGCAGTGGGTTGAGGGGAAGTCTTATTCG [A3]	< 20%	Kd [8]: 7.57 nM
AGTGGGTTCTTGGTGCATCCCAGGAGTACC [A1]	< 20%	Kd [9]: 25.9 nM
GGGGTCAACTTTTCCTTTGTCGGTTTT [A2]	< 20%	Kd [10]: 13.4 nM
TCACGCTTTTGGTGCATGCAGAGTTTTGTG [A4]	< 20%	Kd [11]: 43.6 nM
TGGATTGCACGCAGGGGCCGCTTGGCTGTC [A9]	< 20%	Kd [12]: 7.84 nM
TGTCGGGGGAACAATCTGTGTTCGCTTGTC [A10]	< 20%	Kd [13]: 5.74 nM
ATTGCAAGGAGAGGCTACGGCTATGACAGA [A8]	< 20%	Kd [14]: 9.4 nM
